This data set concerns the target T1, BMC09 (uncultured bacterium (metagenome)).
T1 chain: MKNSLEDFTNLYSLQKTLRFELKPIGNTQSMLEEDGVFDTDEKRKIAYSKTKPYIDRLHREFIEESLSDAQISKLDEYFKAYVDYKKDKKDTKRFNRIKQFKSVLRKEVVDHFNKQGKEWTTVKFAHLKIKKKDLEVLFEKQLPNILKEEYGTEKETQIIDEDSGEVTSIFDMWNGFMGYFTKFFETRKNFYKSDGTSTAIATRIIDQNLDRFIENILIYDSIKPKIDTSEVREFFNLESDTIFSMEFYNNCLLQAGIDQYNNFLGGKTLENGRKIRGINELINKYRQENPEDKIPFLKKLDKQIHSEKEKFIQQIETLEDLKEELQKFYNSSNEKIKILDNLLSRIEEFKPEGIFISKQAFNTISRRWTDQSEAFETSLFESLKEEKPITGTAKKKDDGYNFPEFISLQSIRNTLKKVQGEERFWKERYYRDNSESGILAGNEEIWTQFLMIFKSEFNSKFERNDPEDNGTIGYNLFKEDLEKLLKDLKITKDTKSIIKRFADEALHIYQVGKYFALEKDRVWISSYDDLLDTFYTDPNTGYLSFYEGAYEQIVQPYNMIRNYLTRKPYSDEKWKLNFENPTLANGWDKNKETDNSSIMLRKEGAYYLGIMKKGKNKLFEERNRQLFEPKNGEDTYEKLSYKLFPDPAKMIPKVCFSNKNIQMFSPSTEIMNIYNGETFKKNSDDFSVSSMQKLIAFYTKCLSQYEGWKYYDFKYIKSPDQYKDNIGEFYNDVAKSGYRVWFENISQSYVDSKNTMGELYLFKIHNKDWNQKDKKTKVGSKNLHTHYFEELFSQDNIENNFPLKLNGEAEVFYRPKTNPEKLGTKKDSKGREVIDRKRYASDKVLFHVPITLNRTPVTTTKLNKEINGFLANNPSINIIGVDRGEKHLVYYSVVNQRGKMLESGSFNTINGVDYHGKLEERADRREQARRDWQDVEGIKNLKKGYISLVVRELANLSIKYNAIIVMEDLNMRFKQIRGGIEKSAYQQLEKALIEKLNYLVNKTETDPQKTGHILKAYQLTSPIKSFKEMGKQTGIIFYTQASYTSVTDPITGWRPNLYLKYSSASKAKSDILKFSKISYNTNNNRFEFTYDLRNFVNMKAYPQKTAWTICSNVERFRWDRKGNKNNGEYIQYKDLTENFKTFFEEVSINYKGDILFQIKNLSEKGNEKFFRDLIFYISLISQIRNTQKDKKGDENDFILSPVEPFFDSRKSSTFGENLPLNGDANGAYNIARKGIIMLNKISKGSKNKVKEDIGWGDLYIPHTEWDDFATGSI
The data set can be described thus: cell_activity; PAM not stated; E. coli depletion, 30 C. A digest of the protocol:
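E. coli carrying arabinose-induced (0.2%) BMC nuclease, grown at 30° C., made electrocompetent and electroporated with 50-100 ng plasmid carrying gRNA against malQ. Transformants plated on selective M9-glucose agar with kanamycin/ampicillin (± nourseothricin), and growth scored after 48 h at 30° C.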

B1: malQ gRNA (BMC stem-loop + 24 nt spacer) ; malQ protospacer (ssRNA ; dsDNA)
RNA: GAUUUCUACUAUUGUAGAUGUGGCGGUACGUUGAUGCAUCGCG
DNA 1: GTGGCGGTACGTTGATGCATCGCG
DNA 2: CGCGATGCATCAACGTACCGCCAC
For the molecule B1, the activity was above 99.9 % colony reduction.

Source of the values: US20250277199, “NOVEL CRISPR-CAS NUCLEASES FROM METAGENOMES” (Brain Biotech AG, published 2025).
